Measured values as given in patent US20140038267A1 (ALLELE BIOTECHNOLOGY AND PHARMACEUTICALS, published 2014).

Molecular target: the molecule itself
Test: oligomeric state by size exclusion chromatography (self-association)
From the text: FIG. 1. Size exclusion chromatography of LanYFP (tetramer), dLanYFP (dimer), and mNeonGreen (monomer). The exemplary proteins were detected with 480 nm excitation and 530 nm emission, compared to mCherry (monomer) detected with 540 nm excitation and 620 nm emission. Each exemplary fluorescent protein was run simultaneously with mCherry as a size standard with detection at both wavelengths; mCherry consistently eluted with the same peak shape and retention time. Curves are normalized to peak fluorescence.
Purified and dialyzed fluorescent protein samples were diluted into 50 mM Tris-HCl pH 7.5, 100 mM NaCl and filtered through 0.2 μm filters immediately prior to injection into a Shimadzu Nexera UHPLC equipped with a Waters BEH200 1.7 μm 4.6×150 mm size exclusion column and 4.6×30 mm guard column. Samples were run in the same buffer at a flow rate of 0.3 ml per minute for a total run time of 20 minutes. Fluorescence of the eluted protein was detected with an RF-20Axs fluorescence detector (Shimadzu) with 480 nm and 540 nm excitation and 530 nm and 620 nm emission wavelengths. Each LanYFP or variant sample was co-injected with mCherry, which had been purified under identical conditions and which served as a monomeric size standard.

B1: monomeric NeonGreen (mNeonGreen) (other)
chain: MVSKGEEDNMASLPATHELHIFGSINGVDFDMVGQGTGNPNDGYEELNLKSTKGDLQFSPWILVPHIGYGFHQYLPYPDGMSPFQAAMVDGSGYQVHRTMQFEDGASLTVNYRYTYEGSHIKGEAQVKGTGFPADGPVMTNSLTAADWCRSKKTYPNDKTIISTFKWSYTTGNGKRYRSTARTTYTFAKPMAANYLKNQPMYVFRKTELKHSKTELNFKEWQKAFTDVMGMDELYK
notes: not shown: N-terminal 6xHis tag and linker encoded by vector pNCS
  binding result: no binding
